In PMC12329595, “Engineered bacteriophytochrome heterodimers for research and applications” (The Journal of Biological Chemistry, 2025):
Positions count from the first letter of the chain named. Numbers in names are those of the source.

How the values were obtained:
[1] = molecular target: T1, DrBphPRE (full-length DrBphP E306R/R310E) (Deinococcus radiodurans strain R1, UniProt Q9RZA4 1-755, E306R | R310E, biliverdin IXα covalently linked to a conserved cysteine (holoprotein)); assay: SEC; HPLC, bioZen 1.8 μm SEC-3 column, 30 mM Tris/HCl, 150 mM NaCl, pH 8.0 with 10% acetonitrile, 25 °C; full-length DrBphP and DrF1 variants and mixtures; conditions: both partners purified
T1 construct: Deinococcus radiodurans strain R1 bacteriophytochrome DrBphP, full length; source: E. coli BL21 (DE3), purified (Ni-NTA, SEC)
T1 sequence: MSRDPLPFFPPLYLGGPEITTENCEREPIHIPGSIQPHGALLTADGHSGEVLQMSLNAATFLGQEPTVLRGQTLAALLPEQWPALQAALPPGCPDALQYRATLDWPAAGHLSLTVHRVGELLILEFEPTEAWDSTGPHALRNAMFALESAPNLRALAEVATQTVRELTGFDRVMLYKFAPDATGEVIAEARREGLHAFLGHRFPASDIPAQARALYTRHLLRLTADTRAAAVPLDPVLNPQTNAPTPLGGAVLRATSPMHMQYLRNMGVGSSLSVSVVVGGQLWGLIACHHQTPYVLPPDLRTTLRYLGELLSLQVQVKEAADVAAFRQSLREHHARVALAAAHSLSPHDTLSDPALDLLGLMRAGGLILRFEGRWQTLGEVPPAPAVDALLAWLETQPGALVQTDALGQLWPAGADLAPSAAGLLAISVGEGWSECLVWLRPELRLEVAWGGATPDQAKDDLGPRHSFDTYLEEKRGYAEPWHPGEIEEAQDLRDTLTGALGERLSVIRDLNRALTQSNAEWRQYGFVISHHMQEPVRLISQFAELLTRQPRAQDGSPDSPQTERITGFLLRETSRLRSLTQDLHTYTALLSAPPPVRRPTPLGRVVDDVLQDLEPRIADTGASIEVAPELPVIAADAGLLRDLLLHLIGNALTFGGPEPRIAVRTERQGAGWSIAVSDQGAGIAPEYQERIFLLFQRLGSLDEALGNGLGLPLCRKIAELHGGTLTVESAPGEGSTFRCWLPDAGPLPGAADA

[2] = molecular target: the molecule itself; assay: as above

binding result [1]: binds
B1: DrBphPER (full-length DrBphP R141E/E148R) (natural protein)
chain: T1 sequence with R141E, E148R, R306E, E310R
modifications: biliverdin IXα covalently linked to a conserved cysteine (holoprotein)
notes: Deinococcus radiodurans strain R1 bacteriophytochrome DrBphP, full length; source: E. coli BL21 (DE3), purified (Ni-NTA, SEC)
binding result [2]: binds
